First the molecules themselves.
B1: untagged SPD-5 amino acids 135-473, phosphorylated by PLK1, P91349 S170A; T178A; T198A (protein)
chain: MQSRIETSEDNFARQMKEFEAQKHAMEERIKELELAATDANNTAVGSFRGTLDDILKKNDPDFALTSGYEERKINDLEAKLLSEIDKVAELEDHIQQLRQELDDQSARLADSENVRAQLEAATGQGILGAAGNAMVPNSTFMIGNGRESQTRDQLNYIDDLETKLADAKKENDKARQALVEYMNKCSKLEHEIRTMVKNSTFDSSSMLLGGQTSDELKIQIGKVNGELNVLRAENRELRIRCDQLTGGDGNLSISLGQSRLMAGIATNDVDSIGQGNETGGTSMRILPRESQLDDLEESKLPLMDTSSAVRNQQQFASMWEDFESVKDSLQNNHNDTLE
B2: untagged SPD-5 amino acids 135-473, phosphorylated by PLK1, P91349 T274A; T335A; S339A; S340A (protein)
chain: MQSRIETSEDNFARQMKEFEAQKHAMEERIKELELSATDANNTTVGSFRGTLDDILKKNDPDFTLTSGYEERKINDLEAKLLSEIDKVAELEDHIQQLRQELDDQSARLADSENVRAQLEAATGQGILGAAGNAMVPNSAFMIGNGRESQTRDQLNYIDDLETKLADAKKENDKARQALVEYMNKCSKLEHEIRTMVKNSAFDSAAMLLGGQTSDELKIQIGKVNGELNVLRAENRELRIRCDQLTGGDGNLSISLGQSRLMAGIATNDVDSIGQGNETGGTSMRILPRESQLDDLEESKLPLMDTSSAVRNQQQFASMWEDFESVKDSLQNNHNDTLE
B3: untagged SPD-5 amino acids 135-473, phosphorylated by PLK1, P91349 S170A; T178A; T198A; T274A; T335A; S339A; S340A (protein)
chain: MQSRIETSEDNFARQMKEFEAQKHAMEERIKELELAATDANNTAVGSFRGTLDDILKKNDPDFALTSGYEERKINDLEAKLLSEIDKVAELEDHIQQLRQELDDQSARLADSENVRAQLEAATGQGILGAAGNAMVPNSAFMIGNGRESQTRDQLNYIDDLETKLADAKKENDKARQALVEYMNKCSKLEHEIRTMVKNSAFDSAAMLLGGQTSDELKIQIGKVNGELNVLRAENRELRIRCDQLTGGDGNLSISLGQSRLMAGIATNDVDSIGQGNETGGTSMRILPRESQLDDLEESKLPLMDTSSAVRNQQQFASMWEDFESVKDSLQNNHNDTLE
B4: untagged SPD-5 amino acids 135-473, not phosphorylated, P91349 T274A; T335A; S339A; S340A (protein)
chain: MQSRIETSEDNFARQMKEFEAQKHAMEERIKELELSATDANNTTVGSFRGTLDDILKKNDPDFTLTSGYEERKINDLEAKLLSEIDKVAELEDHIQQLRQELDDQSARLADSENVRAQLEAATGQGILGAAGNAMVPNSAFMIGNGRESQTRDQLNYIDDLETKLADAKKENDKARQALVEYMNKCSKLEHEIRTMVKNSAFDSAAMLLGGQTSDELKIQIGKVNGELNVLRAENRELRIRCDQLTGGDGNLSISLGQSRLMAGIATNDVDSIGQGNETGGTSMRILPRESQLDDLEESKLPLMDTSSAVRNQQQFASMWEDFESVKDSLQNNHNDTLE
B5: untagged SPD-5 amino acids 135-473, not phosphorylated, P91349 S170A; T178A; T198A; T274A; T335A; S339A; S340A (protein)
chain: MQSRIETSEDNFARQMKEFEAQKHAMEERIKELELAATDANNTAVGSFRGTLDDILKKNDPDFALTSGYEERKINDLEAKLLSEIDKVAELEDHIQQLRQELDDQSARLADSENVRAQLEAATGQGILGAAGNAMVPNSAFMIGNGRESQTRDQLNYIDDLETKLADAKKENDKARQALVEYMNKCSKLEHEIRTMVKNSAFDSAAMLLGGQTSDELKIQIGKVNGELNVLRAENRELRIRCDQLTGGDGNLSISLGQSRLMAGIATNDVDSIGQGNETGGTSMRILPRESQLDDLEESKLPLMDTSSAVRNQQQFASMWEDFESVKDSLQNNHNDTLE
B6: untagged SPD-5 amino acids 135-473, not phosphorylated, P91349 S170A; T178A; T198A (protein)
chain: MQSRIETSEDNFARQMKEFEAQKHAMEERIKELELAATDANNTAVGSFRGTLDDILKKNDPDFALTSGYEERKINDLEAKLLSEIDKVAELEDHIQQLRQELDDQSARLADSENVRAQLEAATGQGILGAAGNAMVPNSTFMIGNGRESQTRDQLNYIDDLETKLADAKKENDKARQALVEYMNKCSKLEHEIRTMVKNSTFDSSSMLLGGQTSDELKIQIGKVNGELNVLRAENRELRIRCDQLTGGDGNLSISLGQSRLMAGIATNDVDSIGQGNETGGTSMRILPRESQLDDLEESKLPLMDTSSAVRNQQQFASMWEDFESVKDSLQNNHNDTLE

One experiment addresses reconstituted C. elegans γ-tubulin complex (γTuC): γ-tubulin^TBG-1, GCP2^GIP-2-5Myc, GCP3^GIP-1 and MZT-1, P34475;G5EF84. The experiment can be described thus: γTuC pull-down (γTuC-coated Myc beads), anti-SPD-5 immunoblot band intensity. The note with it: chain shown with the change; +PLK1 preincubation (500 nM PLK1(T194D), 2.0 μM fragment, 1 hour at 23°C); binding 2 hours at 4°C, SPD-5 fragment 75 nM; scale: band intensity relative to SPD-5 135-473 without PLK1.
As to B1, the response is 0.1. Same read-out and setting: the same measure for B2: 2.8; for B3: 0.

The same experiment, now with this note: chain shown with the change; no PLK1; binding 2 hours at 4°C, SPD-5 fragment 75 nM; scale: band intensity relative to SPD-5 135-473 without PLK1.
As for B4, the response is 0.1. Same read-out and setting: the same measure for B5: 0.1.

B6 showed a response of 0.7.

Values taken from PMC13215203.
